Measured values from the supplement of paper PMC9233669.
This sample holds only a part of the variants without activity.

Key:
[1] = system: biotinyl-Leu-oxazolone; experiment: self-aminoacylation, catalytic enhancement (BLO) (fold over background); higher = more active; k-Seq, kA / k0A0; sequences stand for … in GGGAAUGGAUCCACAUCUACGAAUUC…UUCACUGCAGACUUGACGAAGCUG
Method in brief: (§1)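 Each biotinyl-aminoacyl-oxazolone, at 2–1250 μM, was incubated with mutagenized RNA pools (0.43 μM) carrying a 21-nt variable region. The 50 μL reactions contained HEPES/NaCl/KCl/MgCl2/CaCl2 buffer with 5% acetonitrile at pH 6.9–7.0 and ran for 90 minutes at room temperature. After streptavidin capture, RNA was measured by qPCR in triplicate and by Illumina sequencing, and catalytic enhancement was calculated as median kA over the uncatalyzed rate from a pseudo-first-order fit of per-sequence fraction reacted.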

[2] = system: biotinyl-Met-oxazolone; experiment: self-aminoacylation, catalytic enhancement (BMO) (fold over background); higher = more active; k-Seq, kA / k0A0; sequences stand for … in GGGAAUGGAUCCACAUCUACGAAUUC…UUCACUGCAGACUUGACGAAGCUG
Method in brief: as §1

[3] = system: biotinyl-Trp-oxazolone; experiment: self-aminoacylation, catalytic enhancement (BWO) (fold over background); higher = more active; k-Seq, kA / k0A0; sequences stand for … in GGGAAUGGAUCCACAUCUACGAAUUC…UUCACUGCAGACUUGACGAAGCUG
Method in brief: as §1

[4] = system: biotinyl-Phe-oxazolone; experiment: self-aminoacylation, catalytic enhancement (BFO) (fold over background); higher = more active; k-Seq, kA / k0A0; sequences stand for … in GGGAAUGGAUCCACAUCUACGAAUUC…UUCACUGCAGACUUGACGAAGCUG
Method in brief: as §1

[5] = system: biotinyl-Val-oxazolone; experiment: self-aminoacylation, catalytic enhancement (BVO) (fold over background); higher = more active; k-Seq, kA / k0A0; sequences stand for … in GGGAAUGGAUCCACAUCUACGAAUUC…UUCACUGCAGACUUGACGAAGCUG
Method in brief: as §1

[6] = system: biotinyl-Ile-oxazolone; experiment: self-aminoacylation, catalytic enhancement (BIO) (fold over background); higher = more active; k-Seq, kA / k0A0; sequences stand for … in GGGAAUGGAUCCACAUCUACGAAUUC…UUCACUGCAGACUUGACGAAGCUG
Method in brief: as §1

Sequence | self-aminoacylation [1] | self-aminoacylation [2] | self-aminoacylation [3] | self-aminoacylation [4] | self-aminoacylation [5] | self-aminoacylation [6]
CUACUUUAAACAAUCGGUGUG [Fam1A.1 aminoacylation ribozyme variant] | 0.855 | 0.925 | 0.673 | 0.998 | 0.737 | 0.722
AUUCCCCUAGGUCAUCGAGUG [Fam2.2 aminoacylation ribozyme variant] | 15 | 11 | 12.6 | 66.1 | 7.52 | 7.79
AUUCACCUAGGUCAUUGGGUC [Fam2.2 aminoacylation ribozyme variant] | 0.89 | 0.808 | 0.734 | 1.09 | 0.867 | 0.922
AAUUUUGCUAAUAGUAGCAAG [Fam3.1 aminoacylation ribozyme variant] | 1.75 | 1.31 | 0.996 | 1.11 | 1.37 | 1.41
AAGUUUGGUAAUAGCCGCAAG [Fam3.1 aminoacylation ribozyme variant] | 1.15 | 1.39 | 1.42 | 1.19 | 1.01 | 1.27
AGGCUUGCUAAUAGUCGCAAG [Fam3.1 aminoacylation ribozyme variant] | 2.31 | 2.14 | 2.08 | 3.69 | 1.96 | 2.17
UGGUUUGCUAAUAGUCGCAAG [Fam3.1 aminoacylation ribozyme variant] | 1.58 | 1.88 | 4.47 | 8.93 | 1.51 | 1.81
CACUUUGCUAAUAGUCGCAAG [Fam3.1 aminoacylation ribozyme variant] | 1.38 | 1.32 | 2.22 | 0.947 | 1.01 | 1.41
UUGCUUCAAACAAUCGGUCUG [Fam1A.1 aminoacylation ribozyme variant] | 3.55 | 2.25 | 53.4 | 147 | 1.91 | 2.12
CCACACUUCAAGGAAUCUGUC [Fam1B.1 aminoacylation ribozyme variant] | 0.318 | 0.442 | 0.287 | 0.473 | 0.446 | 0.384
AUUCACCUAGGUCAUUGGGCG [Fam2.2 aminoacylation ribozyme variant] | 3.36 | 2.49 | 3.16 | 10.6 | 2.66 | 2.58
CAGUUAGCUAAUAGUCGCAAG [Fam3.1 aminoacylation ribozyme variant] | 1.04 | 1.17 | 0.96 | 1.67 | 1.32 | 1.21
CUACGCUUCAAGCAAUCGGUC [Fam1B.1 aminoacylation ribozyme variant] | 1.86 | 1.14 | 29.9 | 59.9 | 1.06 | 0.964
AUUACCCUGAUCAACGAGUGA [Fam2.1 aminoacylation ribozyme variant] | 15 | 14.6 | 18.5 | 66.4 | 6.16 | 6.3
AGUCACCUAGGUCAUCGGCUG [Fam2.2 aminoacylation ribozyme variant] | 2.27 | 2.18 | 3 | 18.9 | 2.59 | 2.5
AUUCACGUAGGUCAUGGGGUG [Fam2.2 aminoacylation ribozyme variant] | 5.48 | 3.45 | 4.5 | 24.6 | 4.23 | 3.34
AUUCACCUAGGCCAUCCGGUG [Fam2.2 aminoacylation ribozyme variant] | 5.83 | 5.26 | 5.92 | 32 | 4.6 | 4.25
CUUCACCUAGGCCAUCGGGUG [Fam2.2 aminoacylation ribozyme variant] | 4.08 | 3.12 | 4.2 | 11.2 | 3.8 | 2.55
AUUACCCUGAUCAUCGGGUGA [Fam2.1 aminoacylation ribozyme variant] | 9.62 | 9.51 | 10.7 | 67.3 | 5.38 | 5.24
CUACUACAAACAAUCGGUCUU [Fam1A.1 aminoacylation ribozyme variant] | 0.515 | 0.565 | 0.511 | 0.658 | 0.675 | 0.533
CUCCUUCAAGCAAUCGGUCUG [Fam1A.1 aminoacylation ribozyme variant] | 1.58 | 1.2 | 10.2 | 14.1 | 1.09 | 1.09
UUUCACUUAGGUCAUCGGGUG [Fam2.2 aminoacylation ribozyme variant] | 6.73 | 6.17 | 6.64 | 46.7 | 4.19 | 4.22
CCACACUUCAGGUAAUCGGUC [Fam1B.1 aminoacylation ribozyme variant] | 0.824 | 0.887 | 0.712 | 1.07 | 1.07 | 0.805
GUUACGCUGGUCAUCGAGUGA [Fam2.1 aminoacylation ribozyme variant] | 8.34 | 7.2 | 10.6 | 59.2 | 4.86 | 5.57
CCACACUUGAAGCAAUCGGUC [Fam1B.1 aminoacylation ribozyme variant] | 0.735 | 0.782 | 0.805 | 0.778 | 0.926 | 0.836
CUACUUGAAACAAUCGGCCUG [Fam1A.1 aminoacylation ribozyme variant] | 1.45 | 1.96 | 1.38 | 0.788 | 1.68 | 1.84
